Changes are numbered by the printed parent chain. Numbers in names are those of the source. Each block holds one molecule with its values, some of them ahead of it.
Tests used:
Assay type in all cases: biochemical, Z. mays
[1] = tested on: 4-hydroxyphenylpyruvate dioxygenase (HPPD); test: HPPD activity coupled assay with HGD; substrate saturation kinetic parameters (kcat, KM); conditions: Table 6; for kcat: single substitutions in SEQ ID NO:2
Procedure: Wild type and shuffled variant genes were cloned into pVER7062, a modified version of pET24a(+)(Novagen), which places six histidine residues at the N-terminus of the expressed protein. Vectors were electroporated into E. coli host strain BL21(DE3). Cells were grown at 30 C in rich medium such as 2×YT containing the selection antibiotic, kanamycin. At a density of about 0.6 OD600, IPTG was added to 0.2 mM, the temperature was reduced to 16 C and growth continued for another 24 hrs. Cells were harvested by centrifugation and stored at −80 C. Cell pellets were lysed in BPER (Pierce) protein extraction reagent containing 0.2 mg/ml lysozyme, 1 mM dithiothreitol, protease inhibitor cocktail (Sigma, bacterial cocktail) and endonuclease. Insoluble cellular debris was removed by centrifugation. HPPD protein was purified from the soluble protein solution by affinity chromatography on the nickel form of nitrilotriacetic acid (Ni-NTA) resin (Qiagen). Protein concentrations were determined by the Bradford method, as supplied by Bio-Rad.
HPPD catalyzes the conversion of 4-hydroxyphenylpyruvate (HPP) to homogentisate (FIG. 17). […] However, the product of the ensuing reaction in tyrosine metabolism, maleylacetoacetate, absorbs strongly at 320 nm. Furthermore, the enzyme catalyzing that reaction is also a dioxygenase having similar mechanism and buffer requirements as HPPD, making homogentisate dioxygenase (HGD) an ideal partner in a coupled assay, as shown.
The HDG gene from Pseudomonas aeruginosa (Amaya (2004) Arch Biochem Biophys 421, 135-142) was cloned into pVER7062 and electroporated into E. coli strain BL21(DE3). The enzyme was produced by methods similar to those described for HPPD. The purified enzyme has a KM for homogentisate of 23 μM and a kcat of 100/sec, properties highly suited for instantly converting the homogentisate produced by HPPD to maleylacetoacetate.
HPPD activity was measured by placing an aliquot (e.g., 6 μl) of the substrate HPP at 50-fold the desired final concentration into the wells of a low UV-absorbing assay plate. Reactions were started by adding a mixture (e.g., 294 μl) containing 25 mM Hepes, pH 7, 2 mM ascorbate, 10 μM FeSO4, 1 to 100 μM HPP, 50 nM HGD and 5 to 240 nM HPPD. Absorbance at 320 nm was monitored continuously in a plate-reading spectrophotometer (Spectramax, Molecular Devices).
The catalytic performance of wild-type HPPD and variants generated by shuffling was assessed by determining the substrate saturation kinetic parameters. The Michaelis-Menten kinetics protocol of the Spectramax software was customized for HPP concentrations ranging from 3.33 μM to 100 μM. Reaction rates were measured as described above for each concentration of HPP. The software returns values of KM and Vmax using the Lineweaver-Burke transformation of the Michaelis-Menten equation.

[2] = tested on: 4-hydroxyphenylpyruvate dioxygenase (HPPD); test: Estimate of kcat from initial rate at saturating hydroxyphenylpyruvate without inhibitor (ON rate ratio assay); conditions: Table 5; single substitutions in Round 7 variant 9070 (SEQ ID NO:2); estimate from initial rate at saturating hydroxyphenylpyruvate without inhibitor
Method in brief: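 Reactions used 60 or 120 nM HPPD and saturating 100 μM hydroxyphenylpyruvate without inhibitor. kcat was estimated from the initial rate at the known enzyme concentration.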

[3] = tested on: 4-hydroxyphenylpyruvate dioxygenase (HPPD); test: OFF rate ratio: release of inhibitor from pre-formed enzyme-inhibitor complex; conditions: Table 5; tembotrione
Method in brief: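 HPPD (7.2 μM) pre-incubated 1 h at RT with inhibitor (8 μM), then diluted into 25 mM Hepes pH 7, 2 mM ascorbate, 10 μM FeSO4, 100 μM HPP, 50 nM HGD; A320 followed 12 min. Ratio = steady-state rate with inhibitor over initial rate of inhibitor-free enzyme.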

[4] = tested on: 4-hydroxyphenylpyruvate dioxygenase (HPPD); test: ON rate ratio: HPPD reaction rate with vs without inhibitor in the 70 to 90 second interval; conditions: Table 5; tembotrione
Method in brief: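 Time courses of HPPD reactions, 60 or 120 nM enzyme with 100 μM HPP substrate, run with and without 4 μM inhibitor (e.g. mesotrione, tembotrione). Value is the rate with inhibitor over rate without, taken over 70–90 s; higher ratio reflects slower kON.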

[5] = tested on: 4-hydroxyphenylpyruvate dioxygenase (HPPD); test: Insensitivity parameter (ON × OFF) and trait fitness (ON × OFF × kcat/KM or × kcat); conditions: for ON × OFF × kcat, Value / ON × OFF × kcat, Fold vs wt / ON × OFF, fold vs wt / ON × OFF (parameters with tembotrione): Table 5, tembotrione; for ON × OFF × kcat, Fold vs wt / ON × OFF, fold vs wt: fold vs maize wild type HPPD; for ON × OFF (parameters with tembotrione): insensitivity parameter
Method in brief: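 Calculated, not measured directly: ON rate ratio × OFF rate ratio gives an insensitivity parameter serving as a KD surrogate.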

[6] = DKN (diketonitrile form of isoxaflutole)
[7] = DKN (isoxaflutole diketonitrile)

- OFF ratio (parameters with tembotrione) [3]: 0.21
- ON ratio (parameters with tembotrione) [4]: 0.74
- Insensitivity parameter, ON × OFF [5, 6]: 0.26
- Insensitivity parameter, ON × OFF ([5]; Mesotrione, Table 6): 0.46
- Insensitivity parameter, ON × OFF ([5]; Sulcotrione): 0.53
- ON × OFF, fold vs wt [5]: 30.8
- ON × OFF (parameters with tembotrione) [5]: 0.16
- Insensitivity parameter, ON × OFF ([5]; Tembotrione): 0.19
- Insensitivity parameter, ON × OFF ([5]; Topramezon): 0.27
B1: 206Q: single substitution P206Q in SEQ ID NO:2 (protein)
chain: MGPTPTATAAGAAVAAASAAEQAAFRLVGHRNFVRFNPRSDRFQTLAFHHVELWCADAASAAGRFSFALGVPLAARSDLSTGNSAHASLLLRSGSLSLLFTAPYAHGADAATAALPSFSAAAARRFAADHGLAVRAVALRVADAEDAFRASVAAGARPAFGPVDLGRGFRLAEVELYGDVVLRYVSYPDGAAGEPFLPGFEGVASQGAADYGLSRFDHIVGNVPELAPAAAYMAGFTGFHEFAEFTTEDVGTTESGLNSMALANNSENVLLPLNEPVHGTKRRSQIQTFLDHHGGPGVQHIALASDDVLRTLREMRARSAMGGFEFLPPPLSDYYDGVRRCAGDVLTEAQINECQELGVMVDRDDQGVLLQIFTKPVGDRPTFFLEIIQRIGCMEKDEKGQEYQKGGCGGFGKGNFGQLFKSIEDYEKSLEAKQAAAAATAQGS
modifications: Zea mays variant form created by artificial means.
- Km [1]: 2.63 µM
- kcat [1]: 1.11 s⁻¹
- kcat [2]: 0.59 s⁻¹
- ON × OFF × kcat/km fold vs Round 7, variant 9070 [5, 7]: 1.2
- ON × OFF × kcat/km fold vs Round 7, variant 9070 ([5]; Sulco (sulcotrione)): 1.0
- ON × OFF × kcat, Value [5]: 5.57
- ON × OFF × kcat, Fold vs wt [5]: 5.20
- ON × OFF × kcat/km fold vs Round 7, variant 9070 ([5]; Topra (topramezone)): 1.1
- ON × OFF × kcat/km fold vs Round 7, variant 9070 ([5]; meso (mesotrione)): 1.1
- ON × OFF × kcat/km fold vs Round 7, variant 9070 ([5]; tembo (tembotrione)): 1.4

- OFF ratio (parameters with tembotrione) [3]: 0.19
- ON ratio (parameters with tembotrione) [4]: 0.76
- Insensitivity parameter, ON × OFF [5, 6]: 0.33
- Insensitivity parameter, ON × OFF ([5]; Mesotrione, Table 6): 0.48
- Insensitivity parameter, ON × OFF ([5]; Sulcotrione): 0.59
- ON × OFF, fold vs wt [5]: 27.9
- ON × OFF (parameters with tembotrione) [5]: 0.14
- Insensitivity parameter, ON × OFF ([5]; Tembotrione): 0.25
- Insensitivity parameter, ON × OFF ([5]; Topramezon): 0.32
B2: 214N: single substitution S214N in SEQ ID NO:2 (protein)
chain: B1 chain with Q206P, S214N
modifications: Zea mays variant form created by artificial means.
- Km [1]: 3.62 µM
- kcat [1]: 1.41 s⁻¹
- kcat [2]: 0.59 s⁻¹
- ON × OFF × kcat/km fold vs Round 7, variant 9070 [5, 7]: 1.4
- ON × OFF × kcat/km fold vs Round 7, variant 9070 ([5]; Sulco (sulcotrione)): 1.1
- ON × OFF × kcat, Value [5]: 5.04
- ON × OFF × kcat, Fold vs wt [5]: 4.71
- ON × OFF × kcat/km fold vs Round 7, variant 9070 ([5]; Topra (topramezone)): 1.2
- ON × OFF × kcat/km fold vs Round 7, variant 9070 ([5]; meso (mesotrione)): 1.1
- ON × OFF × kcat/km fold vs Round 7, variant 9070 ([5]; tembo (tembotrione)): 1.3

- OFF ratio (parameters with tembotrione) [3]: 0.27
- ON ratio (parameters with tembotrione) [4]: 0.77
- Insensitivity parameter, ON × OFF [5, 6]: 0.38
- Insensitivity parameter, ON × OFF ([5]; Mesotrione, Table 6): 0.54
- Insensitivity parameter, ON × OFF ([5]; Sulcotrione): 0.63
- ON × OFF, fold vs wt [5]: 40.6
- ON × OFF (parameters with tembotrione) [5]: 0.21
- Insensitivity parameter, ON × OFF ([5]; Tembotrione): 0.29
- Insensitivity parameter, ON × OFF ([5]; Topramezon): 0.37
B3: 158K: single substitution P158K in SEQ ID NO:2 (protein)
chain: B1 chain with P158K, Q206P
modifications: Zea mays variant form created by artificial means.
- Km [1]: 2.49 µM
- kcat [1]: 0.785 s⁻¹
- kcat [2]: 0.84 s⁻¹
- ON × OFF × kcat/km fold vs Round 7, variant 9070 [5, 7]: 1.0
- ON × OFF × kcat/km fold vs Round 7, variant 9070 ([5]; Sulco (sulcotrione)): 0.9
- ON × OFF × kcat, Value [5]: 10.44
- ON × OFF × kcat, Fold vs wt [5]: 9.76
- ON × OFF × kcat/km fold vs Round 7, variant 9070 ([5]; Topra (topramezone)): 1.1
- ON × OFF × kcat/km fold vs Round 7, variant 9070 ([5]; meso (mesotrione)): 1.0
- ON × OFF × kcat/km fold vs Round 7, variant 9070 ([5]; tembo (tembotrione)): 1.3

- OFF ratio (parameters with tembotrione) [3]: 0.17
- ON ratio (parameters with tembotrione) [4]: 0.76
- Insensitivity parameter, ON × OFF [5, 6]: 0.26
- Insensitivity parameter, ON × OFF ([5]; Mesotrione, Table 6): 0.52
- Insensitivity parameter, ON × OFF ([5]; Sulcotrione): 0.59
- ON × OFF, fold vs wt [5]: 25.7
- ON × OFF (parameters with tembotrione) [5]: 0.13
- Insensitivity parameter, ON × OFF ([5]; Tembotrione): 0.21
- Insensitivity parameter, ON × OFF ([5]; Topramezon): 0.29
B4: 432K: single substitution A432K in SEQ ID NO:2 (protein)
chain: B1 chain with Q206P, A432K
modifications: Zea mays variant form created by artificial means.
- Km [1]: 2.08 µM
- kcat [1]: 1.12 s⁻¹
- kcat [2]: 0.525 s⁻¹
- ON × OFF × kcat/km fold vs Round 7, variant 9070 [5, 7]: 1.6
- ON × OFF × kcat/km fold vs Round 7, variant 9070 ([5]; Sulco (sulcotrione)): 1.5
- ON × OFF × kcat, Value [5]: 4.13
- ON × OFF × kcat, Fold vs wt [5]: 3.86
- ON × OFF × kcat/km fold vs Round 7, variant 9070 ([5]; Topra (topramezone)): 1.5
- ON × OFF × kcat/km fold vs Round 7, variant 9070 ([5]; meso (mesotrione)): 1.6
- ON × OFF × kcat/km fold vs Round 7, variant 9070 ([5]; tembo (tembotrione)): 1.4

- OFF ratio (parameters with tembotrione) [3]: 0.21
- ON ratio (parameters with tembotrione) [4]: 0.75
- Insensitivity parameter, ON × OFF [5, 6]: 0.21
- Insensitivity parameter, ON × OFF ([5]; Mesotrione, Table 6): 0.44
- Insensitivity parameter, ON × OFF ([5]; Sulcotrione): 0.53
- ON × OFF, fold vs wt [5]: 30.0
- ON × OFF (parameters with tembotrione) [5]: 0.15
- Insensitivity parameter, ON × OFF ([5]; Tembotrione): 0.16
- Insensitivity parameter, ON × OFF ([5]; Topramezon): 0.24
B5: 356R: single substitution E356R in SEQ ID NO:2 (protein)
chain: B1 chain with Q206P, E356R
modifications: Zea mays variant form created by artificial means.
- Km [1]: 2.89 µM
- kcat [1]: 1.32 s⁻¹
- kcat [2]: 0.652 s⁻¹
- ON × OFF × kcat/km fold vs Round 7, variant 9070 [5, 7]: 1.1
- ON × OFF × kcat/km fold vs Round 7, variant 9070 ([5]; Sulco (sulcotrione)): 1.1
- ON × OFF × kcat, Value [5]: 5.97
- ON × OFF × kcat, Fold vs wt [5]: 5.58
- ON × OFF × kcat/km fold vs Round 7, variant 9070 ([5]; Topra (topramezone)): 1.1
- ON × OFF × kcat/km fold vs Round 7, variant 9070 ([5]; meso (mesotrione)): 1.1
- ON × OFF × kcat/km fold vs Round 7, variant 9070 ([5]; tembo (tembotrione)): 1.2

- OFF ratio (parameters with tembotrione) [3]: 0.27
- ON ratio (parameters with tembotrione) [4]: 0.75
- Insensitivity parameter, ON × OFF [5, 6]: 0.41
- Insensitivity parameter, ON × OFF ([5]; Mesotrione, Table 6): 0.56
- Insensitivity parameter, ON × OFF ([5]; Sulcotrione): 0.70
- ON × OFF, fold vs wt [5]: 39.5
- ON × OFF (parameters with tembotrione) [5]: 0.20
- Insensitivity parameter, ON × OFF ([5]; Tembotrione): 0.28
- Insensitivity parameter, ON × OFF ([5]; Topramezon): 0.38
B6: 385I: single substitution L385I in SEQ ID NO:2 (protein)
chain: B1 chain with Q206P, L385I
modifications: Zea mays variant form created by artificial means.
- Km [1]: 2.29 µM
- kcat [1]: 0.768 s⁻¹
- kcat [2]: 0.458 s⁻¹
- ON × OFF × kcat/km fold vs Round 7, variant 9070 [5, 7]: 1.2
- ON × OFF × kcat/km fold vs Round 7, variant 9070 ([5]; Sulco (sulcotrione)): 1.1
- ON × OFF × kcat, Value [5]: 5.55
- ON × OFF × kcat, Fold vs wt [5]: 5.18
- ON × OFF × kcat/km fold vs Round 7, variant 9070 ([5]; Topra (topramezone)): 1.2
- ON × OFF × kcat/km fold vs Round 7, variant 9070 ([5]; meso (mesotrione)): 1.1
- ON × OFF × kcat/km fold vs Round 7, variant 9070 ([5]; tembo (tembotrione)): 1.3
